# Assay: yeast display, Sf9 membrane polyspecificity reagent, FACS + sequencing; frameworks hold sequencing errors
# Method in brief: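 Nanobodies from a synthetic yeast display library (Saccharomyces cerevisiae BJ5465), induced 36–48 hours with galactose, were stained 1 hour at 4 °C with 10% biotinylated, detergent-solubilized Sf9 membrane reagent, enriched on streptavidin microbeads, then FACS-sorted. Anti-HA (expression) and streptavidin (reagent binding) fluorescence set low and high (top ~1%) gates. Polyreactivity labels come from the gate of origin. Genes were colony-PCR amplified, MiSeq 2 × 250 sequenced and filtered by CDR length.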
row,Sequence,polyreactivity (PSR sort gate)
1,QVQLVESGGGLVQAGGSLRLSCAASGRIFGIYAMGWHRQAPGKERELVASITDGTITNYADSVKGRFTISRDNAKNTVYLQMNSLKPEDTAVYYCAAGTQAHAYVVRPIEMDYSGQGTQVTVSS,low polyreactivity
2,QVQLVESGGGLVQAGGSLRLSCAASGRIFGIYAMGWYRQAPGKERELVADIDVSDGSTYYADSVKGRFTISRDNAKNTVYLQMNSLKPEDTAVYYCNAEDSSRWYDWYLHDYWGQGTQVTVSS,high polyreactivity
3,QVQLVESGGGLVQAGGSLRLSCAASGRIFGIYAMGWYRQAPGKERELVATITDSDDSTYYADSVKGRFTISRDNAKNTVYLQMNSLKPEDTAVYYCAAADGIYARYFFSRFPRFDYWGQGTQVTVSS,low polyreactivity
4,QVQLVESGGGLVQAGGSLRLSCAASGRIFGKNAMGWYRQAPGKERELVAAISANGGSTSYADSVKGRFTISRDNAKNTVYLQMNSLKPEDTAVYYCNVRRQLRGDYWGHGTQVTVSS,high polyreactivity
5,QVQLVESGGGLVQAGGSLRLSCAASGRIFGKYAMGWYRQAPGKERELVAAITRRGGSTYYADSVKGRFTISRDNAKNTVYLQMNSLKPEDTAVYYCNAALTGYRVSPTRHRYDYWGQGTQVTVSS,high polyreactivity
6,QVQLVESGGGLVQAGGSLRLSCAASGRIFGKYVMGWYRQAPGKERELVAAISRSGGSTSYADSVKGRFTISRDNAKNTVYLQMNSLKPEDTEVYYCAAGFLSGWWFAYDYWGQGTQVTVSS,high polyreactivity
7,QVQLVESGGGLVQAGGSLRLSCAASGRIFGLNAMGWSRQAPGKERELVASITYSGGSTYYADSVKGRFTISRDNAKNTVYLQMNSLKPEDTAVYYCAARIIVDDVGTKYYYWGQGTQVTVSS,high polyreactivity
8,QVQLVESGGGLVQAGGSLRLSCAASGRIFGLNAMGWYRQAPGKERELVAAIDQGDGITYYADSVKGRFTISRDNAKNTVYLQMNSLKPEDTAVYYCAAEVSYKEIYQYYWIYPAYNYWGQGTQVTVSS,high polyreactivity
9,QVQLVESGGGLVQAGGSLRLSCAASGRIFGLYALGWYRPAPGKEREFVAAIRWIGGGTYYADSVKGRFTISRDHAKNTVYLQINSLKPEDTAVDSCNVVTWYYVFRPWEYDYWGQGTQVTVSS,low polyreactivity
10,QVQLVESGGGLVQAGGSLRLSCAASGRIFGLYAMGWYRHAPGKEREFVAANNWDGGSTFYADSVKGRFTISRDNAKNTVYLQMNSLKPEDTAVYSCAADVYSYVSYSTYVSVFTYDYWGQGTQVTVSS,low polyreactivity
11,QVQLVESGGGLVQAGGSLRLSCAASGRIFGLYAMGWYRQAPGKERELVAGITYSGGTTYYADSVKGRFTISRDNAKNTVYLQMNSLKPEDTAVYYCNKRWYYQYGKYGYWGQGTQVTVSS,high polyreactivity
12,QVQLVESGGGLVQAGGSLRLSCAASGRIFGLYAMGWYRQAPGKERELVATITRRAGSTYYADSVKGRFTISRDNAKNTVYLQMNSLKPEDTAVYYCAARSWANYDYWGQGTQVTVSS,high polyreactivity
13,QVQLVESGGGLVQAGGSLRLSCAASGRIFGLYTMGWYRQAPGKEREFVAGITYSAGRTYYADSVKGRFTISRDNAKNTVYLQMNSLKPEDTAVYYCAATRRWYPTKLYGYWGQVTQVTVSS,high polyreactivity
14,QVQLVESGGGLVQAGGSLRLSCAASGRIFGNNAMAWYRQATGKESELVAGISRTGGSTYYADSVKGRFTISRDNAKNTVYLQMNSLKPEDTAVFYCAALVYSGRYASYGYWGQGTQVTVSS,low polyreactivity
15,QVQLVESGGGLVQAGGSLRLSCAASGRIFGPYAMGWYRQAPGKERELVAAISQRGGTTYYADSVKGRFTISRDNAKNTVYLQMNSLKPEDTAVYYCAAKTYGWGQGTQVTVSS,high polyreactivity
16,QVQLVESGGGLVQAGGSLRLSCAASGRIFGPYTMGWYRQAPAKEREFVAAITRRGGSTYYADSVKGRFTISRDNAKNTVYLQMNSLKPEDTAVYYCAAVGLKRSLGYSWGQGTQVTVSS,low polyreactivity
17,QVQLVESGGGLVQAGGSLRLSCAASGRIFGPYTMGWYRQAPGKERELVATISYSGSTTYYADSVKGRFTISRDNAKNTVYLQMNSLKPEDTAVYYCNAQYYVFITFDYWGQGTQVTVSS,high polyreactivity
18,QVQLVESGGGLVQAGGSLRLSCAASGRIFGQYAMGWYRQAPGKERELVAAITYSTGSTSYADSVKGRFTISRDNAKNTVYLQMNSLKPEDTAVYYCATRKPSVRGVIPTRNSYYYWGQGTQVTVSS,high polyreactivity
19,QVQLVESGGGLVQAGGSLRLSCAASGRIFGRNAMGWSRQAPGKERELVASITSGGSTNYADSVKGRFTISRYNAKNTVYLQMNSLKPEDTAVYYCNARWTGSYTSTGFRRRFDYWGQGTQVTVSS,high polyreactivity
20,QVQLVESGGGLVQAGGSLRLSCAASGRIFGRNAMGWYRQAPGKEREFVAAITSSGGNTYYADSVKGRFTISRDNAKNTVYLQMNSLKPEDTAVYYCAARGARYCTSDYWGQGTQVTVSS,high polyreactivity

row,Sequence,polyreactivity (PSR sort gate)
1,QVQLVESGGGLVQAGGSLRLSCAASGRIFGRNAMGWYRQAPGKERELVAAISRRSVSTYYADSVKGRFTISRDIAKNTVYLQMNSLKPEETAVYYCAARKSLTTPYGYWGQGTQVTVSS,high polyreactivity
2,QVQLVESGGGLVQAGGSLRLSCAASGRIFGRNAMGWYRQAPGKERELVAAISSSGGTYYADSVKGRFTISRDNAKNTVYLQMNSLKPEDTAVYYCNARVRTQQRWVDYWGQGTQVTVSS,high polyreactivity
3,QVQLVESGGGLVQAGGSLRLSCAASGRIFGRNAMGWYRQAPGKERELVAAISSSGGTYYADSVKGRFTISRDNAKNTVYLQMNSLKPEDTAVYYCTARVRTQQRWVDYWGQGTQVTVSS,high polyreactivity
4,QVQLVESGGGLVQAGGSLRLSCAASGRIFGRNVMGWYRQAPGKERELVAAITTGGGSTYYADSVKGRFTISRDNAKNTVYLQMNSLKPEDTAVYYCATDRRHEYSSRRYYYWGQGTQVTVSS,high polyreactivity
5,QVQLVESGGGLVQAGGSLRLSCAASGRIFGRYAMGRYRRAPGKESEFVAAIDGGGGRTYADSVKGRFTISRDNAKNTVYLQMNSLKPEDTAVYYCNAYVYSIHWGDLYWSEYDYWGQGTQVTVSS,high polyreactivity
6,QVQLVESGGGLVQAGGSLRLSCAASGRIFGRYAMGWYIQAPGKERELVAAISRSGGITYYADSVKGRFTISRDNAKNTVYLQMNSLKPEDTAVYYCAAYRAGNSYYPRLNYWGQGTQVTVSS,high polyreactivity
7,QVQLVESGGGLVQAGGSLRLSCAASGRIFGRYAMGWYRQAPGKEREFVAAISWRGGTTYYADSVKGRFTISRDNAKNTVYLQMNSLKPEDTAVYYCNARYQTGGYGYWGQGTQVTVSS,high polyreactivity
8,QVQLVESGGGLVQAGGSLRLSCAASGRIFGRYAMGWYRQAPGKERELVAAISSRGSRTYYADSVKGRFTISRDNAKNTVYLQMNSLKPEDTAVYYCAATWLSNPSDYDYWGPGTQVTVSS,high polyreactivity
9,QVQLVESGGGLVQAGGSLRLSCAASGRIFGRYAMGWYRQAPGKEREVVATITRNGGGTYADSVKGRFTISRDNAKNTVYLQMNSLKPEDTAVYYCAVDTAAAWERRGFDSWGQGTQVTVSS,low polyreactivity
10,QVQLVESGGGLVQAGGSLRLSCAASGRIFGRYTMGWYRQAPGKERELVAAISARGGSTYYADSVKGRFTISRDNAKNTVYLQMNSLKPEDTAVYYCDAEYVVWYLDRFNYWGQGTQVTVSS,high polyreactivity
11,QVQLVESGGGLVQAGGSLRLSCAASGRIFGRYVMGWYRQAPGKERELVARIRRNGGSTYYADSVKGRFTISRDNAKNTVYLQMNSLKPDDTAVYDCAAESYDTWRRYESWGQGTQVTVSS,high polyreactivity
12,QVQLVESGGGLVQAGGSLRLSCAASGRIFGSYALGWYRQAPGKERELVAAISSGGSTSYADSVKGRFTISRDNAKNTVYLQMNSLKPEDTAVDYCNRLRLFRGRGDYWGQGTQVTVSS,high polyreactivity
13,QVQLVESGGGLVQAGGSLRLSCAASGRIFGSYAMGWYRQAPGKERELVAVITKRGDSTYYADSVKGRFTISRDNAKNTVYLQMNSLKPEDTAVYYCNAGRVYYSNGYDYWGQGSQVTVSS,low polyreactivity
14,QVQLVESGGGLVQAGGSLRLSCAASGRIFGSYTMGWYRQAPGKERELVAGISRRGGSTYYADSVKGRFTISRDNAKNTVYLQMNGLKPEDTAVYYCAAVSSVFSVRYDYWGQGTQVTVSS,high polyreactivity
15,QVQLVESGGGLVQAGGSLRLSCAASGRIFGSYVMGWYRQAPGKERELVAAISYSGGRTYYADSVKGRFTISRDNAKNTVYLQMNSLKPEDTAVYYCAKESSGSRYQYYYWGQGTQVTVSS,high polyreactivity
16,QVQLVESGGGLVQAGGSLRLSCAASGRIFGTNAMGWYRQAPGKERELVADITSGGSTNYADSVKGRFTISRDNAKNTVYLQMNSLKPEDTAVYDCAADVIGDLRWYRDEYWGQGTQVTVSS,low polyreactivity
17,QVQLVESGGGLVQAGGSLRLSCAASGRIFGTNARGWYRQAPGKERELVADITSGGSTNYADSVKGRFTISRDNAKNTVYLQMNSLKPEDTAVYYCAADVIGDLRWYRDEYWGQGTQVTVSS,low polyreactivity
18,QVQLVESGGGLVQAGGSLRLSCAASGRIFGVNAMGWYRPSPGKERELVADISSGGSTNYADSVKGRFTISRDNAKNTVYLQMNSLKPEDTAVYYCNARFRFRYKFPSRNSWGQGTQVTVSS,high polyreactivity
19,QVQLVESGGGLVQAGGSLRLSCAASGRIFGVNAMGWYRQAPGKERELVAAITRRGGSTYADSVKGRFTISRDNAKNTVYLQMNSLKPEDTAVYYCNAESYYGIFRYKYDYWGQGTQVTVSS,high polyreactivity
20,QVQLVESGGGLVQAGGSLRLSCAASGRIFGVYAMGWSRQAPGKERELVAAITARGGSTYYADSVKGRFTISRDNAKNTVYLQMNSLKPEDTAVYYCNAARSTSRPYDYWGQGTQVTVSS,high polyreactivity
